In the assay the target is T1, TNFR1 (Homo sapiens, UniProt P19438).
T1 chain: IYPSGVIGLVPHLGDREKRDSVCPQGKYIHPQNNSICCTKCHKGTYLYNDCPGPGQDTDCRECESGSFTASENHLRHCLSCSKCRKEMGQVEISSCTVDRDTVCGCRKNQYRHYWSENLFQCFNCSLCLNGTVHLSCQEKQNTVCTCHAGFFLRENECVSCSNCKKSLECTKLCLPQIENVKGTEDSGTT
The experiment in a line: yeast display SC50.

B1: A20E (designed binder)
chain: SMEEEVEKAAKEYEKKKKEEIEKHLEKLKAKDKEAAERFLKELEEAAKEYAKDEAKTMSEEEAKRRAKKYKEKVLLSELSEEEQKEIKEAEEKLVRTILKYVEEAAK
On to B1, for which the “apparent Kd (screen)” value turned out to be 1.16 nM.

B2: T97K (designed binder)
chain: SMEEEVEKAAKEYEKKKKEAIEKHLEKLKAKDKEAAERFLKELEEAAKEYAKDEAKTMSEEEAKRRAKKYKEKVLLSELSEEEQKEIKEAEEKLVRKILKYVEEAAK
As for B2, the “apparent Kd (screen)” value turned out to be 0.539 nM.

B3: E60C (designed binder)
chain: SMEEEVEKAAKEYEKKKKEAIEKHLEKLKAKDKEAAERFLKELEEAAKEYAKDEAKTMSCEEAKRRAKKYKEKVLLSELSEEEQKEIKEAEEKLVRTILKYVEEAAK
On to B3, for which the “apparent Kd (screen)” value amounted to 1.05 nM.

B4: K73W (designed binder)
chain: SMEEEVEKAAKEYEKKKKEAIEKHLEKLKAKDKEAAERFLKELEEAAKEYAKDEAKTMSEEEAKRRAKKYKEWVLLSELSEEEQKEIKEAEEKLVRTILKYVEEAAK
B4: the “apparent Kd (screen)” value worked out at 15.2 nM.

B5: E78W (designed binder)
chain: SMEEEVEKAAKEYEKKKKEAIEKHLEKLKAKDKEAAERFLKELEEAAKEYAKDEAKTMSEEEAKRRAKKYKEKVLLSWLSEEEQKEIKEAEEKLVRTILKYVEEAAK
With B5, the “apparent Kd (screen)” value came to 2.73 nM.

B6: K48D (designed binder)
chain: SMEEEVEKAAKEYEKKKKEAIEKHLEKLKAKDKEAAERFLKELEEAADEYAKDEAKTMSEEEAKRRAKKYKEKVLLSELSEEEQKEIKEAEEKLVRTILKYVEEAAK
Regarding B6, the “apparent Kd (screen)” value stood at 0.49 nM.

B7: E103G (designed binder)
chain: SMEEEVEKAAKEYEKKKKEAIEKHLEKLKAKDKEAAERFLKELEEAAKEYAKDEAKTMSEEEAKRRAKKYKEKVLLSELSEEEQKEIKEAEEKLVRTILKYVGEAAK
Take B7: the “apparent Kd (screen)” value is 0.539 nM.

B8: K100M (designed binder)
chain: SMEEEVEKAAKEYEKKKKEAIEKHLEKLKAKDKEAAERFLKELEEAAKEYAKDEAKTMSEEEAKRRAKKYKEKVLLSELSEEEQKEIKEAEEKLVRTILMYVEEAAK
Take B8: the “apparent Kd (screen)” value came out at 1.05 nM.

B9: A51P (designed binder)
chain: SMEEEVEKAAKEYEKKKKEAIEKHLEKLKAKDKEAAERFLKELEEAAKEYPKDEAKTMSEEEAKRRAKKYKEKVLLSELSEEEQKEIKEAEEKLVRTILKYVEEAAK
In the case of B9, the “apparent Kd (screen)” value was 6.43 nM.

B10: A46R (designed binder)
chain: SMEEEVEKAAKEYEKKKKEAIEKHLEKLKAKDKEAAERFLKELEERAKEYAKDEAKTMSEEEAKRRAKKYKEKVLLSELSEEEQKEIKEAEEKLVRTILKYVEEAAK
With B10, the “apparent Kd (screen)” value was 1.54 nM.

B11: E34A (designed binder)
chain: SMEEEVEKAAKEYEKKKKEAIEKHLEKLKAKDKAAAERFLKELEEAAKEYAKDEAKTMSEEEAKRRAKKYKEKVLLSELSEEEQKEIKEAEEKLVRTILKYVEEAAK
For B11, the “apparent Kd (screen)” value turned out to be 1.05 nM.

B12: E72C (designed binder)
chain: SMEEEVEKAAKEYEKKKKEAIEKHLEKLKAKDKEAAERFLKELEEAAKEYAKDEAKTMSEEEAKRRAKKYKCKVLLSELSEEEQKEIKEAEEKLVRTILKYVEEAAK
For B12, the “apparent Kd (screen)” value came out at 1.05 nM.

B13: Q84L (designed binder)
chain: SMEEEVEKAAKEYEKKKKEAIEKHLEKLKAKDKEAAERFLKELEEAAKEYAKDEAKTMSEEEAKRRAKKYKEKVLLSELSEEELKEIKEAEEKLVRTILKYVEEAAK
For the molecule B13, the “apparent Kd (screen)” value worked out at 2.48 nM.

B14: E7N (designed binder)
chain: SMEEEVNKAAKEYEKKKKEAIEKHLEKLKAKDKEAAERFLKELEEAAKEYAKDEAKTMSEEEAKRRAKKYKEKVLLSELSEEEQKEIKEAEEKLVRTILKYVEEAAK
Take B14: the “apparent Kd (screen)” value is 1.27 nM.

B15: E22N (designed binder)
chain: SMEEEVEKAAKEYEKKKKEAINKHLEKLKAKDKEAAERFLKELEEAAKEYAKDEAKTMSEEEAKRRAKKYKEKVLLSELSEEEQKEIKEAEEKLVRTILKYVEEAAK
B15: the “apparent Kd (screen)” value was 0.869 nM.

B16: A55V (designed binder)
chain: SMEEEVEKAAKEYEKKKKEAIEKHLEKLKAKDKEAAERFLKELEEAAKEYAKDEVKTMSEEEAKRRAKKYKEKVLLSELSEEEQKEIKEAEEKLVRTILKYVEEAAK
For the molecule B16, the “apparent Kd (screen)” value is 3 nM.

B17: E91I (designed binder)
chain: SMEEEVEKAAKEYEKKKKEAIEKHLEKLKAKDKEAAERFLKELEEAAKEYAKDEAKTMSEEEAKRRAKKYKEKVLLSELSEEEQKEIKEAIEKLVRTILKYVEEAAK
B17: the “apparent Kd (screen)” value was found to be 7.78 nM.

B18: E61I (designed binder)
chain: SMEEEVEKAAKEYEKKKKEAIEKHLEKLKAKDKEAAERFLKELEEAAKEYAKDEAKTMSEIEAKRRAKKYKEKVLLSELSEEEQKEIKEAEEKLVRTILKYVEEAAK
In the case of B18, the “apparent Kd (screen)” value stood at 1.54 nM.

B19: K107T (designed binder)
chain: SMEEEVEKAAKEYEKKKKEAIEKHLEKLKAKDKEAAERFLKELEEAAKEYAKDEAKTMSEEEAKRRAKKYKEKVLLSELSEEEQKEIKEAEEKLVRTILKYVEEAAT
B19: the “apparent Kd (screen)” value stood at 0.869 nM.

B20: A67Y (designed binder)
chain: SMEEEVEKAAKEYEKKKKEAIEKHLEKLKAKDKEAAERFLKELEEAAKEYAKDEAKTMSEEEAKRRYKKYKEKVLLSELSEEEQKEIKEAEEKLVRTILKYVEEAAK
In the case of B20, the “apparent Kd (screen)” value was determined as 22.2 nM.

B21: H24A (designed binder)
chain: SMEEEVEKAAKEYEKKKKEAIEKALEKLKAKDKEAAERFLKELEEAAKEYAKDEAKTMSEEEAKRRAKKYKEKVLLSELSEEEQKEIKEAEEKLVRTILKYVEEAAK
For B21, the “apparent Kd (screen)” value is 1.05 nM.

B22: K68G (designed binder)
chain: SMEEEVEKAAKEYEKKKKEAIEKHLEKLKAKDKEAAERFLKELEEAAKEYAKDEAKTMSEEEAKRRAGKYKEKVLLSELSEEEQKEIKEAEEKLVRTILKYVEEAAK
Regarding B22, the “apparent Kd (screen)” value turned out to be 1.27 nM.

B23: L25C (designed binder)
chain: SMEEEVEKAAKEYEKKKKEAIEKHCEKLKAKDKEAAERFLKELEEAAKEYAKDEAKTMSEEEAKRRAKKYKEKVLLSELSEEEQKEIKEAEEKLVRTILKYVEEAAK
Turning to B23, the “apparent Kd (screen)” value came to 1.4 nM.

B24: L75A (designed binder)
chain: SMEEEVEKAAKEYEKKKKEAIEKHLEKLKAKDKEAAERFLKELEEAAKEYAKDEAKTMSEEEAKRRAKKYKEKVALSELSEEEQKEIKEAEEKLVRTILKYVEEAAK
As to B24, the “apparent Kd (screen)” value worked out at 0.405 nM.

B25: E78R (designed binder)
chain: SMEEEVEKAAKEYEKKKKEAIEKHLEKLKAKDKEAAERFLKELEEAAKEYAKDEAKTMSEEEAKRRAKKYKEKVLLSRLSEEEQKEIKEAEEKLVRTILKYVEEAAK
Consider B25, for which the “apparent Kd (screen)” value came out at 1.86 nM.

Values taken from paper PMC12416549 (2024).
